Data on 1 substance can be found in patent publication US12228567B2, “Colorimetric sensor kit for screening therapeutic agent for neurodegenerative disease, including amyloid shelled-gold nanoparticle, and method for screening therapeutic agent for neurodegenerative disease” (Korea University Research and Business Foundation, priority 2019, dated 2025).

In one data set the target is T1, Aβ(1-42) (Homo sapiens, UniProt P05067).
T1 construct: can degrade Aβ(1-42)
The data set can be described thus: Degradation activity of MMP-9 for the amyloid-gold nanoparticle, Aβ(1-42). Format: biochemical. The settings on record: ASGN made with Aβ(1-42). From the text: (§1) For investigation of the reactivity of the Amyloid Shelled-Gold Nanoparticle (ASGN), the reactivity of the amyloid-gold nanoparticle with amyloid-degrading proteases (protease XIV and matrix metallopeptidase 9 (MMP-9)) was investigated. As a result, it was confirmed that the composite of the present disclosure can be used not only for drug screening but also for investigation of the activity of an amyloid-degrading enzyme.
(§2) Therefore, MMP-9 degrades and removes Aβ(1-42) in the Golgi apparatus and the cytoplasm in the neurons of the brain.

For the next data set, the target named is Aβ(1-40) (Homo sapiens, UniProt P05067). The data set can be described thus: Degradation activity of MMP-9 for the amyloid-gold nanoparticle, Aβ(1-40). The note with it: ASGN made with Aβ(1-40). Format: biochemical.
Aβ(1-40), sequence (P05067 672-711 limits assumed): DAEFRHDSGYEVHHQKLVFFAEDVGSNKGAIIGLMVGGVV
Description: as §1, §2

T1 sequence (P05067 672-713 limits assumed): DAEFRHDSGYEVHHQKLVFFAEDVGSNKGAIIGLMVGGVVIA

matrix metallopeptidase 9 [MMP-9]: the “degradation of Aβ(1-42) on the amyloid-gold nanoparticle” value in the data set with Aβ(1-42) was “specifically degrades Aβ(1-42) only”. Also, the “degradation of Aβ(1-40) on the amyloid-gold nanoparticle” value in the data set with Aβ(1-40) is “cannot degrade”.
